Assay results as given in publication PMC5587591, “Enoyl-CoA hydratase-1 regulates mTOR signaling and apoptosis by sensing nutrients” (Nature Communications, 2017).

T1: SIRT3 (Homo sapiens, UniProt Q9NTG7)
T1 construct: recombinant from E. coli (DE3)
T1 sequence (Q9NTG7 102-399): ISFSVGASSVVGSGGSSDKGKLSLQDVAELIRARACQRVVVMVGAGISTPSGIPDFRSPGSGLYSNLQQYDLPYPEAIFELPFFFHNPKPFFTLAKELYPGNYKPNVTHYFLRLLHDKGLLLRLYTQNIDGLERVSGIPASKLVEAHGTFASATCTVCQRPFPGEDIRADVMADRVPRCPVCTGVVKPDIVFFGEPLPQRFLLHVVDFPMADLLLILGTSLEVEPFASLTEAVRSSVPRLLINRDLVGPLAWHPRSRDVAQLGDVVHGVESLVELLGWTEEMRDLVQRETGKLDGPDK


What was measured:
[1] = molecular target: T1, SIRT3; assay: deacetylation of AcK101 ECHS1 peptide, MS; format: biochemical; settings: 1 mM NAD+, 30 mM HEPES pH 7.0, 37 °C; acetylated 9-residue ECHS1 peptide as co-substrate
[2] = substrate: C/C=C/C(=O)SCCNC(=O)CCNC(=O)[C@H](O)C(C)(C)COP(=O)(O)OP(=O)(O)OC[C@H]1O[C@@H](n2cnc3c(N)ncnc32)[C@H](O)[C@@H]1OP(=O)(O)O; assay: purified protein; format: biochemical, Homo sapiens; settings: 50 mM Tris-HCl pH 8.0

Row | Molecule | deacetylation of AcK101 ECHS1 peptide, MS [1] | Km [2] [µM]
1 | NC(=O)c1ccc[n+]([C@@H]2O[C@H](COP(=O)(O)OP(=O)(O)OC[C@H]3O[C@@H](n4cnc5c(N)ncnc54)[C@H](O)[C@@H]3O)[C@@H](O)[C@H]2O)c1 [NAD^+] | SIRT3 deacetylated synthetic AcK101-containing ECHS1 peptide in an NAD^+-dependent manner in vitro | 
2 | ECHS1 (enoyl-CoA hydratase-1) (Homo sapiens) (protein) ASGANFEYIIAEKRGKNNTVGLIQLNRPKALNALCDGLIDELNQALKTFEEDPAVGAIVLTGGDKAFAAGADIKEMQNLSFQDCYSSKFLKHWDHLTQVKKPVIAAVNGYAFGGGCELAMMCDIIYAGEKAQFAQPEILIGTIPGAGGTQRLTRAVGKSLAMEMVLTGDRISAQDAKQAGLVSKICPVETLVEEAIQCAEKIASNSKIVVAMAKESVNAAFEMTLTEGSKLEKKLFYSTFATDDRKEGMTAFVEKRKANFKDQ |  | 360 ± 180
3 | ECHS1 (enoyl-CoA hydratase-1) (Homo sapiens; K101Q) (protein) ASGANFEYIIAEKRGKNNTVGLIQLNRPKALNALCDGLIDELNQALKTFEEDPAVGAIVLTGGDKAFAAGADIQEMQNLSFQDCYSSKFLKHWDHLTQVKKPVIAAVNGYAFGGGCELAMMCDIIYAGEKAQFAQPEILIGTIPGAGGTQRLTRAVGKSLAMEMVLTGDRISAQDAKQAGLVSKICPVETLVEEAIQCAEKIASNSKIVVAMAKESVNAAFEMTLTEGSKLEKKLFYSTFATDDRKEGMTAFVEKRKANFKDQ |  | 740 ± 430
4 | ECHS1 (enoyl-CoA hydratase-1) (Homo sapiens; K101R) (protein) ASGANFEYIIAEKRGKNNTVGLIQLNRPKALNALCDGLIDELNQALKTFEEDPAVGAIVLTGGDKAFAAGADIREMQNLSFQDCYSSKFLKHWDHLTQVKKPVIAAVNGYAFGGGCELAMMCDIIYAGEKAQFAQPEILIGTIPGAGGTQRLTRAVGKSLAMEMVLTGDRISAQDAKQAGLVSKICPVETLVEEAIQCAEKIASNSKIVVAMAKESVNAAFEMTLTEGSKLEKKLFYSTFATDDRKEGMTAFVEKRKANFKDQ |  | 300 ± 80
